Source: publication PMC7508745

Molecular target: Skp(S126C) (UniProt P0AEU7)
Assay: SEC; HiLoad 16/600 Superdex 200 pg; NMR buffer (20 mM MES, pH 6.5, 150 mM NaCl, 1 mM DTT); refolded protein eluted at 79 mL

A stoichiometry N of 3 was found for “Skp(S126C) (from UniProt P0AEU7 21-161) (natural protein)” in this work.
